Data as given in patent US8624002B2, “Prostaglandin E2 binding proteins and uses thereof” (AbbVie, Inc., priority 2008, dated 2014).
Where “and” joins values, the source holds several entries; their conditions need not be identical. Identical values can stand only once.

Assays:
[1] = Pharmacokinetics of 2B5.8.0 in Sprague-Dawley rats; format: in vivo; settings: rat, IV 4 mg/kg
Method: Pharmacokinetic studies with mouse mAb 2B5.8.0 were carried out in Sprague Dawley rats and Balb/C mice. Male and female rats and mice were dosed intravenously or intraperitoneally (mice only) with a single dose of 4 mg/kg 2B5.8.0 and serum samples were analyzed using antigen capture based chemiluminescent MSD (Meso Scale Discovery) method (Meso Scale Discovery, Gaithersburg, Md.). Pharmacokinetic parameters were calculated by non-compartmental analysis using WinNonlin.
The following MSD assay was used to measure antibody concentration in rat and mouse serum. MSD streptavidin plates (Meso Scale Discovery, Gaithersburg, Md.) were washed with phosphate buffered saline containing 0.05% Tween-20 (Sigma, St. Louis, Mo.). Plates were blocked with 250 μL/well blocking solution (MSD Block, Meso Scale Discovery, diluted to 3% final concentration in PBS) for 1 hour, covered, with shaking (600 rpm) at room temperature. After washing, 70 μL of biotinylated PGE2 (Prostoglandin E2-biotinamide, Cayman Chemical, Ann Arbor, Mich., cat# 10006987, lot# 190831-191028, 0.01 ug/mL in assay buffer) was added to each well. The plates were covered and incubated with shaking (600 rpm) for 1 hour at room temperature
Prior to analysis, rat and mouse serum samples were thawed on ice, mixed gently, and centrifuged at 14,000 rpm for 3 minutes at 4° C. in an eppendorf centrifuge. Standard curve and control samples were prepared in rat and mouse serum. A Tecan Evo automated liquid handling station was used to dilute standard curve, high, medium, and low controls, and serum samples in assay buffer, keeping 1% final serum concentration constant. MSD plates were washed again and study samples, standard curve samples and blanks, as well as high, medium, and low controls were added (70 μL/well). The plates were covered, and incubated for 1 hour with shaking (600 rpm) at room temperature.
After incubation, the MSD plates were washed, and 70 μL of sulfo-tagged goat anti-mouse IgG (Meso Scale Discovery; diluted to 1 ug/mL in assay buffer) was added to each well. The MSD plates were covered, and incubated with shaking (600 rpm) for 1 hour at room temperature, then the plates were washed and developed with 2× Read Buffer (Meso Scale Discovery). Chemilumeniscence was measured within ten minutes on the MSD Sector Imager 6000.
Standard curves were analyzed using four-parameter logistic fit and sample concentrations were calculated by XLfit4 software version 2.2.1 Build 16, ([…].). Pharmacokinetic parameters were calculated for each animal using Winonlin software version 5.0.1 (Pharsight Corporation, Mountain View, Calif.) by noncompartmental analysis.
Surgically altered jugular vein cannulated, JVC) and regular male and female Sprague-Dawley Rats (approximately seven weeks old, weighing 240-390 grams) were purchased from Charles River Laboratories (Wilmington, Mass.). The animals were housed in rooms maintained at constant temperature and humidity under 12 hours light/dark cycle, fed with normal rodent chow and were allowed food and water ad libitum. Hydration and clinical conditions of the animals were monitored daily.
Male and female Balb/c mice (weighing approximately 0.025 kg) were purchased from Charles River Laboratories (Wilmington, Mass.). The animals were allowed food and water ad libitum. Blood samples were collected (0.2 mL from the rats via the tail vein and by cardiac puncture from the mice) at various timepoints (5 mice at each timepoint) allowed to clot for 30 minutes at room temperature, centrifuged for 3 minutes at 13,200 rpm, the serum transferred to eppendorf tubes and stored frozen at −80° C.

[2] = test system: carrageenan-induced paw edema; assay: Carrageenan-induced footpad edema model; format: in vivo, C57.BL/6 mice
Method: Carrageenan-Induced Footpad Edema is an acute rodent model of innate immune function. The in vivo efficacy of mouse anti-PGE2 antibody 2B5-8.0 is assessed in a carragenan-induced paw edema model. The induction of paw inflammation with carrageenan is performed similarly as previously described (Joseph P. Portanova, et al. J. Exp. Med. 184: 883-891 (1996)). Intradermal (ID) injection of an inflammatory agent causes a rapid influx of neutrophils and fluid edema which peaks at approximately 4 hours, followed by an influx of macrophages and monocytes which peaks at approximately 48 hours. C57.BL/6 mice (8-10-week-old, Jackson Laboratories, Bar Harbor, Me.) were injected ID in the rear footpad with 30 μL of either PBS (left) or λ-carrageenen (Sigma Aldrich, St. Louis, Mo.) in PBS (right) at a concentration of 5.0 mg/mL (150 μg/mouse). Rear footpad thickness was measured by Dyer spring caliper model #310-119 at baseline (time=0), and 4 hours post carrageenan challenge. Significant difference for paw thickness was determined by comparing mean paw swelling for each treatment group to vehicle in a Student's two-tailed t-test. Mice were given a dose titration of an anti-PGE2 antibody (2B5-8.0) intraperitonially (IP) 18 hours prior to carrageenan challenge, or Indomethacin, PO 2 hours prior to challenge. The endpoint measured was the difference in paw swelling (edema) between right and left paws 4 hours after treatment.

B1: 2B5-8.0: recombinant anti-PGE2 antibody from solved 2B5 sequence; VH SEQ ID NO 42, VL SEQ ID NO 43 (antibody, V domains shown)
VH: QVQLQQSGPELVRPGSSVKISCKASGYTFTKYWLGWVKQRPGHGLEWIGDIYPGYDYTHYNEKFKDKATLTVDTSSSTAYMQLSSLTSEDSAIYYCARSDGSSTYWGQGTLVTVSA
VL: DVLMTQTPLSLPVSLGDQASISCTSSQNIVHSNGNTYLEWYLQRPGQSPKLLIYKVSNRFSGVPDRFSGSGSGTVFTLKISRVEAEDLGVYYCFQVSHVPYTFGGGTKLEIKR
- AUC0-∞ ([1]; female): 12.0 ± 4.6 mg·h/mL
- CL ([1]; female): 0.37 ± 0.13 mL/h/kg
- MRT ([1]; female): 10.8 ± 3.5 days
- Vss ([1]; female): 88 ± 6.2 mL/kg
- Vz ([1]; female): 101 ± 13.1 mL/kg
- T½ ([1]; female, 4 mg/kg): 8.9 days and 8.5 ± 2.2 days
- AUC0-∞ ([1]; male): 9.9 ± 0.7 mg·h/mL
- CL ([1]; male): 0.41 ± 0.03 mL/h/kg
- MRT ([1]; male): 12.6 ± 1.6 days
- T½ ([1]; male): 9.1 days
- Vss ([1]; male): 122 ± 18.5 mL/kg
- Vz ([1]; male): 127 ± 18.9 mL/kg
- Δ Paw Swelling (mm) ([2]; 10 mg/kg, i.p., 18 hours prior to carrageenan, 4 hours post challenge): 0.529 ± 0.04 mm
- % Inhibition ([2]; 10 mg/kg, i.p., paw swelling 4 hours post challenge): 38 ± 4.6%
- maximal inhibition of paw swelling ([2]; at 10 mg/kg): 40-50%
